What is called stoichiometry N is a count of units in the complex or per binding partner.

We go through two molecules from publication PMC3771910, “The Crystal Structure and RNA-Binding of an Orthomyxovirus Nucleoprotein” (PLoS Pathogens, 2013).

Data set [1] addresses ISAV-NP ΔC16 (aa 1–600) (infectious salmon anemia virus (ISAV)). In words: SEC; gel filtration chromatography (Superdex 200) of purified recombinant NP; size estimated against three protein standards.
The target is the same in data set [2]. In words: negative-staining electron microscopy; NP mixed with 24-nt RNA at 2:1 protein:RNA molar ratio in 100 mM NaCl, 25 mM HEPES pH 7.5, 25°C 30 min, purified by gel filtration before use.
Data set [3] concerns the molecule itself. Description: SEC; gel filtration chromatography (Superdex 200) of purified recombinant NP; size estimated against three protein standards.

Regarding “ISAV-NP ΔC16 (aa 1–600) (domain or fragment)”, the stoichiometry N in data set [1] and in data set [2] was 2 throughout.

B1: infectious salmon anemia virus nucleoprotein, full-length (aa 1–616) (natural protein)
chain: MADKGMTYSFDVRDNTLVVRRSTATKSGIKISYREDRGTSLLQKAFAGTEDEFWVELDQDVYVDKKIREFLVEEKMKDMSTRVSGAVAAAIERSVEFDNFSKEAAANIEMAGVDDEEAGGSGLVDNRRKNKGVSNMAYNLSLFIGMVFPALTTFFSAILSEGEMSIWQNGQAIMRILALADEDGKRQTRTGGQRVDMADVTKLNVVTANGKVKQVEVNLNDLKAAFRQSRPKRSDYRKGQGSKATESSISNQCMALIMKSVLSADQLFAPGVKMMRTNGFNASYTTLAEGANIPSKYLRHMRNCGGVALDLMGMKRIKNSPEGAKSKIFSIIQKKVRGRCRTEEQRLLTSALKISDGENKFQRIMDTLCTSFLIDPPRTTKCFIPPISSLMMYIQEGNSVLAMDFMKNGEDACKICREAKLKVGVNSTFTMSVARTCVAVSMVATAFCSADIIENAVPGSERYRSNIKANTTKPKKDSTYTIQGLRLSNVRYEARPETSQSNTDRSWQVNVTDSFGGLAVFNQGAIREMLGDGTSETTSVNVRALVKRILKSASERSARAVKTFMVGEQGKSAIVISGVGLFSIDFEGVEEAERITDMTPEIEFDEDDEEEEDIDI
notes: Nucleoprotein (NP) of infectious salmon anemia virus (ISAV), aa 1-616; Dimer in solution; also called ISAV-NP; wt NP; source: E. coli Rosetta 2 (DE3), purified (HisTrap HP, HiTrap Heparin HP, Superdex 200)
With B1, the “stoichiometry N” value in data set [3] is 2.
